Target: T1, CD4 on primary human peripheral lymphocytes (human, UniProt P01730 26-458)
T1 construct: whole, on cells; also called human lymphocytes
Assay: flow cytometry on human PBMCs (CD3+ lymphocytes), MFI over serial dilutions of BT061
Protocol: Human PBMCs were isolated by density gradient centrifugation and stained with FITC-labelled anti-CD3 antibody (345763; Becton/Dickinson) and serial dilutions of BT061. BT061 binding was detected with an phycoerythrin labelled human IgG antibody (109-116-098; Jackson, Immunoresearch). By flow cytometric analysis the mean fluorescence intensity of CD3+ BT061 binding lymphocytes was determined.

B1: humanized B-F5 H37L/L4M IgG1 (BT061) (antibody, V domains shown)
VH: EEQLVESGGGLVKPGGSLRLSCAASGFSFSDCRMYWLRQAPGKGLEWIGVISVKSENYGANYAESVRGRFTISRDDSKNTVYLQMNSLKTEDTAVYYCSASYYRYDVGAWFAYWGQGTLVTVSS
VL: DIVMTQSPDSLAVSLGERATINCRASKSVSTSGYSYIYWYQQKPGQPPKLLIYLASILESGVPDRFSGSGSGTDFTLTISSLQAEDVAVYYCQHSRELPWTFGQGTKVEIK
notes: also called hB-F5; humanised B-F5
EC50: < 0.01 µg/mL
